Source: patent US20200239556A1 (BIOVERATIV USA, published 2020)

How the values were obtained:
human Factor Bb = molecular target: T1, human Factor Bb (human, UniProt P00751 260-764); assay: direct ELISA screen of hybridoma clones on fBb
T1 construct: The protein in the assay was purified human Factor Bb; also called fBb

[1] = molecular target: T2, full length human Complement Factor B (human, UniProt P00751 26-764); assay: ELISA, antigen coated on the plate, HRP goat anti-mouse detection
T2 construct: also called fB; FB
T2 sequence (P00751 26-764 limits assumed): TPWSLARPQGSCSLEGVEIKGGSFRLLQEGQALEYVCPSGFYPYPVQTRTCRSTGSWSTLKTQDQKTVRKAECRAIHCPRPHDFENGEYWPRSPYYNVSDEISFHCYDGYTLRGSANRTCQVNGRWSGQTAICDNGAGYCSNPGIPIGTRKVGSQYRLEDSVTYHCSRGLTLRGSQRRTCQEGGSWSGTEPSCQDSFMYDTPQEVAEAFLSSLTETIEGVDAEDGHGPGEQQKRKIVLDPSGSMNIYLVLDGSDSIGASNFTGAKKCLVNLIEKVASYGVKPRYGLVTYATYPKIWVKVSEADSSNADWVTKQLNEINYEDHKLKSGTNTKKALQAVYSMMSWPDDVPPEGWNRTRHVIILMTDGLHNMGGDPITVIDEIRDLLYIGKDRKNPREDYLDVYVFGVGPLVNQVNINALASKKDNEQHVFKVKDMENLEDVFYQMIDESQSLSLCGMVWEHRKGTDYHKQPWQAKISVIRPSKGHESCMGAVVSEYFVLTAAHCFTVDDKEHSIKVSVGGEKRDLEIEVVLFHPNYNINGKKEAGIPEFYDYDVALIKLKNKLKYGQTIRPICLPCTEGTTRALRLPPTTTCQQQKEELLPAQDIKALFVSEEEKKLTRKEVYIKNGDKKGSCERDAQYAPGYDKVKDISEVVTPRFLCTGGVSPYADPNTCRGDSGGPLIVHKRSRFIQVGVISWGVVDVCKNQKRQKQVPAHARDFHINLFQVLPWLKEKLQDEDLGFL

T1 sequence (P00751 260-764 limits assumed): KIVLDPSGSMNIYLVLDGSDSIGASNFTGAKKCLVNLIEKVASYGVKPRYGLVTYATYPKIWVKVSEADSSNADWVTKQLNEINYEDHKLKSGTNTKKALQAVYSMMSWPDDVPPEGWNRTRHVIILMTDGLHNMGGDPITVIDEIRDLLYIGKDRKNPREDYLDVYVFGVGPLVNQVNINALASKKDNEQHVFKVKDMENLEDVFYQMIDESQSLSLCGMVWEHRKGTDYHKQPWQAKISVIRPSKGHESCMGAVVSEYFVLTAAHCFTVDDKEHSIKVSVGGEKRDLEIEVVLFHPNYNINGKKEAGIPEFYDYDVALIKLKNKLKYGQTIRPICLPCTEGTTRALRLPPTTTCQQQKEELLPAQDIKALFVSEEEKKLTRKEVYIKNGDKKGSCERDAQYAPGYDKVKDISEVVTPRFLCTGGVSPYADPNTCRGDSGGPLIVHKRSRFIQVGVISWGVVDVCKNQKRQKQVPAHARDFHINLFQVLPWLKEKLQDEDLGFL

- binding result (human Factor Bb): binds
- binding result [1]: binds
B1: anti-Factor B Ab (antibody, V domains shown)
VH: EVQLQQSGPELVKPGASVKMSCKASGYSFTDYLMNWVKQSHGKSLEWIGRINPYNGDAFYNQRFKGKATLTVDKSSSTAHMELRSLTSEDSALYYCARLENDYGFTYWGQGTLVTVSA
VL: DIVMTQAAFSNPVTLGTSASISCSSSKSLLHSNGITYLYWYLQRPGQSPQLLIYRMSNLASGVPDRFSGSGSGTDFTLRISRVEAEDVGVYYCAQMLERPWTFGGGTKLEIK
notes: Mouse monoclonal antibody purified from hybridoma supernatant (NZBW mice immunised with fBb); also called FBb Ab; anti-Factor B antibody
